The source of these data is patent US20210398607A1, “METHODS FOR DESIGNING ANTIBODY SMALL-MOLECULE CONJUGATES” (priority 2020, published 2021).

In general, koff refers to a measure of how fast the partners let go of each other. A lower koff goes with a long-lived complex. A word on the kon: it is a measure of how fast the partners come together. The low end stands for slow association, the high end for fast association.

One experiment concerns the target mSA. The settings on record: read-out: biotin/mSA affinity, fluorescence polarization spectroscopy, cited from earlier work.
The target of experiment [1] is T1, mSA (monomeric streptavidin construct), wild type.
T1 construct: also called mSAWT
T1 chain: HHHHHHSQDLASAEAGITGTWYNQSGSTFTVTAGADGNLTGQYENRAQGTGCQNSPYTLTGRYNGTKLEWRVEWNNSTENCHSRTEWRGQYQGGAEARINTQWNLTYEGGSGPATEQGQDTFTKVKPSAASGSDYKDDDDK
Put plainly: SPR, single-cycle injections of 2.5, 5, 10, 20 and 50 nM conjugate; target mSAWT by the text, not printed on the sheet; fit curve. For orientation: In SPR one partner is held on a chip, and binding of the other changes the refractive index at the surface.

Experiment [2] concerns the target T1, mSA (monomeric streptavidin construct), …. Put plainly: SPR, immobilized mSA.
In experiment [3] the target is T2, mSAS27A (mSA with single mutation S27A).
T2 chain: T1 chain with S27A
Put plainly: SPR, conjugate injected at 62.5, 125, 250, 500 nM and 1 µM over immobilized mSAS27A; fit curve; one of three replicates.

Experiment [4] has the same target. Put plainly: SPR, conjugate injected at 62.5, 125, 250, 500 nM and 1 uM over immobilized mSAS27A; biological replicate 2; fit curve.
Experiment [5] deals with T1, mSA (monomeric streptavidin construct), …. Put plainly: SPR, conjugate injected at 1, 2.5, 5, 10, 20 nM over immobilized mSAWT; fit curve; one of three replicates.
Experiment [6] shares this target. Put plainly: SPR, 25 °C; reference mSA on immobilized biotin.
Experiment [7] deals with T2, mSAS27A (mSA with single mutation S27A). Put plainly: SPR, conjugate injected at 62.5, 125, 250, 500 nM and 1 uM over immobilized mSAS27A; biological replicate 3; fit curve.
Experiment [8] shares this target. Put plainly: SPR; reference mSAS27A/biotin.
The target of experiment [9] is T1, mSA (monomeric streptavidin construct), …. Put plainly: SPR, conjugate injected at 1, 2.5, 5, 10, 20 nM over immobilized mSAWT; fit curve; replicate 3.
Experiment [10] has the same target. Put plainly: SPR, conjugate injected at 1, 2.5, 5, 10, 20 nM over immobilized mSAWT; fit curve; replicate 2.
For experiment [11] the target is unchanged. Put plainly: SPR, 25 °C, immobilized mSA.
Experiment [12] addresses T2, mSAS27A (mSA with single mutation S27A). Put plainly: SPR.
The target in experiment [13] is T1, mSA (monomeric streptavidin construct), …. Put plainly: SPR, conjugate injected at 0.5, 1, 2.5, 5, 10 nM over immobilized mSAWT; fit curve; one of three replicates.
Experiment [14] has the same target. Put plainly: SPR; variant v149.
For experiment [15] the target is unchanged. Put plainly: SPR, conjugate injected at 0.5, 1, 2.5, 5, 10 nM over immobilized mSAWT; fit curve; replicate 2.
Experiment [16] shares this target. Put plainly: SPR, conjugate injected at 0.5, 1, 2.5, 5, 10 nM over immobilized mSAWT; fit curve; replicate 3.
For experiment [17] the target is unchanged. Put plainly: SPR.
The target is the same in experiment [18]. Put plainly: SPR, conjugate injected at 0.5, 1, 2.5, 5, 10 nM over immobilized mSAWT; fit curve; one of three replicates.
For experiment [19] the target is unchanged. Put plainly: SPR, conjugate injected at 0.5, 1, 2.5, 5, 10 nM over immobilized mSAWT; fit curve; replicate 3.
Experiment [20] has the same target. Put plainly: SPR; variant v119.
For experiment [21] the target is unchanged. Put plainly: SPR, conjugate injected at 0.5, 1, 2.5, 5, 10 nM over immobilized mSAWT; fit curve; replicate 2.
The target in experiment [22] is T2, mSAS27A (mSA with single mutation S27A). Put plainly: SPR, conjugate injected at 12.5, 25, 50, 100 and 200 nM over immobilized mSAS27A; biological replicate 2; fit curve.
Experiment [23] shares this target. Put plainly: SPR, conjugate injected at 12.5, 25, 50, 100, 200 nM over immobilized mSAS27A; fit curve; one of three replicates.
The target is the same in experiment [24]. Put plainly: SPR, conjugate injected at 12.5, 25, 50, 100 and 200 nM over immobilized mSAS27A; biological replicate 3; fit curve.
Experiment [25] concerns the target T1, mSA (monomeric streptavidin construct), …. Put plainly: SPR, conjugate injected at 0.5, 1, 2.5, 5, 10 nM over immobilized mSAWT; fit curve; replicate 3.
Experiment [26] has the same target. Put plainly: SPR, conjugate injected at 0.5, 1, 2.5, 5, 10 nM over immobilized mSAWT; fit curve; one of three replicates.
Experiment [27] has the same target. Put plainly: SPR, conjugate injected at 0.5, 1, 2.5, 5, 10 nM over immobilized mSAWT; fit curve; replicate 2.
The target is the same in experiment [28]. Put plainly: SPR, conjugate injected at 1, 2.5, 5, 10, 20 nM; fit curve; replicate 2. The panel title prints 'against immobilized mSAS27A'; target taken as mSAWT after the legend of FIG. 6B (other two replicates against mSAWT are in FIG. 11) and the matching data points of FIG. 6C.
Experiment [29] has the same target. Put plainly: SPR, conjugate injected at 1, 2.5, 5, 10, 20 nM; fit curve; replicate 2. The panel title prints 'against immobilized mSAS27A'; target taken as mSAWT after the legend of FIG. 6B and the matching data points of FIG. 6C.
The target is the same in experiment [30]. Put plainly: SPR, conjugate injected at 1, 2.5, 5, 10, 20 nM over immobilized mSAWT; fit curve; one of three replicates.
The target is the same in experiment [31]. Put plainly: SPR, conjugate injected at 1, 2.5, 5, 10, 20 nM; fit curve; replicate 3. The panel title prints 'against immobilized mSAS27A'; target taken as mSAWT after the legend of FIG. 6B and the matching data points of FIG. 6C.

Substitutions are numbered along the chain they refer to. Where two headings read alike, the source gives them in different places. Where only a bound is given, the exact number is not on record here.

`O=C(O)CCCC[C@@H]1SC[C@@H]2NC(=O)N[C@@H]21` [biotin]: the results for the Kd on mSA (4° C.) and at mSA (37° C.) were 2.8 ± 0.5 nM and 5.5 ± 0.2 nM, respectively.

B1: 2X89.A-CCAA-biotin57 v5 (VHH)
VHH: QVQLQESGGGLVQAGGSLRLSCAASGYTSSQYAMGWYRQAPGKEREWVATISAGADCTYYADSVKGRFTFSQDNAKNTVYLQMDSLKPEDTAVYYCATDSPLQATLITAKGGKGFQYWGQGTQVTVSS
notes: also called variant v5; final variant v5
With B1, in experiment [1], the Kd is 2.78 nM, the off-rate (koff) turned out to be 0.00122 s⁻¹ and the kon worked out at 440000 M⁻¹ s⁻¹.

B2: 4NBX.B nanobody, wild type (unconjugated) (VHH)
VHH: QVQLQESGGGLAQAGGSLRLSCAASGRTFSMDPMAWFRQPPGKEREFVAAGSSTGRTTYYADSVKGRFTISRDNAKNTVYLQMNSLKPEDTAVYYCAAAPYGANWYRDEYAYWGQGTQVTVSS
notes: also called Wildtype 4NBX.B; 4NBX.B WT
As to B2, the binding result in experiment [2] is reported as “no binding (tested: 100 nM)”.

B3: 4NBX.B-biotin103 (VHH)
VHH: B2 VHH with A103C
notes: also called 4NBX.B-biotin103 WT
B3: the Kd came to 279 nM in [3]; 269 nM in experiment [4]; 1.86 nM in [5]; 188 nM in [7]; 1.92 nM in [9]; 1.59 nM in [10]. The Kd in experiment [11] turned out to be 1.8 nM; in [12], 245 nM. In addition, the dissociation rate constant (koff) in experiment [3] is 0.12 s⁻¹; in experiment [4], 0.296 s⁻¹; in [5], 0.00221 s⁻¹; in experiment [7] it was 0.149 s⁻¹; in experiment [9] it was 0.00225 s⁻¹; in experiment [10], 0.00197 s⁻¹. In addition, the kon in experiment [3] was 430000 M⁻¹ s⁻¹; in [4] it was 1.1e+06 M⁻¹ s⁻¹; in experiment [5], 1.19e+06 M⁻¹ s⁻¹; in experiment [7], 790000 M⁻¹ s⁻¹; in experiment [9], 1.17e+06 M⁻¹ s⁻¹; in experiment [10] it was 1.24e+06 M⁻¹ s⁻¹. Further, the “fold affinity improvement over biotin/mSA” value in experiment [6] stood at 4 fold. For the same molecule, the “fold affinity improvement over biotin/mSAS27A” value in experiment [8] was 5 fold.

B4: 4NBX.B-biotin103 v149 (VHH)
VHH: B2 VHH with M31R, D32S, A103C, N104A, W105R
In experiment [13], B4 had a Kd of 0.11 nM, a koff of 0.000923 s⁻¹ and a kon of 8.7e+06 M⁻¹ s⁻¹. In addition, the Kd in [14] was 0.12 nM. For the same molecule, in experiment [15], the Kd amounted to 0.11 nM, the koff is 0.00106 s⁻¹ and the kon came to 9.78e+06 M⁻¹ s⁻¹. For the same molecule, in experiment [16], the Kd worked out at 0.14 nM, the koff worked out at 0.00081 s⁻¹ and the kon came to 5.84e+06 M⁻¹ s⁻¹. Besides, in experiment [17], the “fold KD improvement over biotin/mSAWT” value was greater than 20 fold, the “fold faster kon compared to v119” value is roughly 4 fold and the “koff ratio relative to v119” value was roughly 0.2 fold.

B5: 4NBX.B-biotin103 v119 (VHH)
VHH: B2 VHH with M31H, D32A, A103C, N104S, W105H
On to B5, for which the Kd in [18] was determined as 0.78 nM; in experiment [19], 1.11 nM; in experiment [20] it was 0.9 nM; in experiment [21], 0.76 nM. Besides, the off-rate (koff) was determined as 0.00177 s⁻¹ in experiment [18], 0.00213 s⁻¹ in experiment [19] and 0.00186 s⁻¹ in [21]. The kon was determined as 2.3e+06 M⁻¹ s⁻¹ in [18], 1.93e+06 M⁻¹ s⁻¹ in [19] and 2.45e+06 M⁻¹ s⁻¹ in experiment [21]. In addition, the “fold KD improvement over 4NBX.B-biotin103 WT” value in experiment [17] is roughly 2 fold.

B6: 4NBX.B-biotin103 v186_Fr (VHH)
VHH: QVQLQESGGGLVQAGGSLRLSCAASGRTFSRSPMAWYRQPPGKEREFVAAGSSTGTTTYYADSVKGRFTISRDNAKNTVYLQMNSLKPEDTAVYYCAAAPLGCARKFAESAYWGQGTQVTVSS
notes: also called wildtype v186_Fr
In the case of B6, the Kd in experiment [22] was found to be 56.3 nM; in experiment [23], 49.6 nM; in [24], 55.5 nM; in experiment [25] it was 0.21 nM; in experiment [26], 0.23 nM; in experiment [27], 0.16 nM. The Kd in experiment [17] came to 0.2 nM; in experiment [12] it was 54 nM. Further, the koff in experiment [22] stood at 0.0879 s⁻¹; in experiment [23] it was 0.0912 s⁻¹; in experiment [24] it was 0.0872 s⁻¹; in [25], 0.00089 s⁻¹; in experiment [26], 0.0011 s⁻¹; in [27], 0.00079 s⁻¹. For the same molecule, the kon in experiment [22] is 1.56e+06 M⁻¹ s⁻¹; in [23], 1.84e+06 M⁻¹ s⁻¹; in experiment [24], 1.57e+06 M⁻¹ s⁻¹; in [25], 4.26e+06 M⁻¹ s⁻¹; in [26], 4.79e+06 M⁻¹ s⁻¹; in experiment [27], 5.04e+06 M⁻¹ s⁻¹. In addition, the “fold KD improvement over biotin/mSAWT” value in experiment [17] is greater than 20 fold. For the same molecule, the “fold KD improvement (over biotin/mSAS27A)” value in experiment [12] was roughly 20 fold.

B7: 2X89.A-CCAA-biotin57 (VHH)
VHH: QVQLQESGGGSVQAGGSLRLSCAASGYTDSRYAMAWFRQAPGKEREWVARINSGRDCTYYADSVKGRFTFSQDNAKNTVYLQMDSLEPEDTATYYCATDIPLRARDIVAKGGDGFRYWGQGTQVTVSS
notes: also called parent conjugate
For the molecule B7, the on-rate (kon) amounted to 710000 M⁻¹ s⁻¹ in experiment [28], 940000 M⁻¹ s⁻¹ in [30] and 1.03e+06 M⁻¹ s⁻¹ in experiment [31]. For the same molecule, the Kd in [29] was 1.01 nM; in [30], 0.82 nM; in [17], 0.8 nM; in [31], 0.54 nM. Moreover, the koff in experiment [29] was found to be 0.000718 s⁻¹; in experiment [30], 0.000771 s⁻¹; in experiment [31], 0.000555 s⁻¹.
